# Laboratory results from patent US20250333523A1 (Alector, published 2025).
# Where a chain is given by its changes, count along the chain named.
# T1: Avi/His-HuIL18BPa (recombinant human IL-18BP isoform A with Avi and poly-His tags) (human, biotinylated with BirA on the Avi tag in some assays)
# T1 chain: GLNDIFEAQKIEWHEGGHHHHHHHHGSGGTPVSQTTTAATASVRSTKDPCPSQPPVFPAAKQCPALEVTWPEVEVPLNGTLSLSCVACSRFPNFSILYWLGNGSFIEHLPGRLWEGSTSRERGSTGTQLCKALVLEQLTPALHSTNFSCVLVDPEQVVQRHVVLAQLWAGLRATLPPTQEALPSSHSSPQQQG
# T2: Avi/HisMsIL18BPd (recombinant mouse IL-18BP with Avi and poly-His tags) (mouse, biotinylated with BirA on the Avi tag in some assays)
# T2 chain: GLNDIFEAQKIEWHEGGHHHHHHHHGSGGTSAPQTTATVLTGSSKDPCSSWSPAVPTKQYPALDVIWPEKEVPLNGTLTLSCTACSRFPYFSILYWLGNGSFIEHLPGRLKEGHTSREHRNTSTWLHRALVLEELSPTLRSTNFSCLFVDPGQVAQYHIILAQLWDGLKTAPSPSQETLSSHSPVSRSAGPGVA
# T3: His/Avi-CynoIL18BP (recombinant cynomolgus IL-18BP with His and Avi tags) (cynomolgus monkey)
# T3 construct: also called cynomolgus IL-18BP-Avi-His
# T3 chain: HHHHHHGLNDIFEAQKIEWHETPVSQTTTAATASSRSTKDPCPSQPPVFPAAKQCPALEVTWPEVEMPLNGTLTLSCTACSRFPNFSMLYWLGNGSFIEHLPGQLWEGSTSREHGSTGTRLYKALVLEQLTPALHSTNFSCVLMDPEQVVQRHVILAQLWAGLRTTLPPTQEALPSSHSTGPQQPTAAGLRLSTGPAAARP
# B1: anti-IL-18BP antibody variant BP-04.04 (antibody, V domains shown)
# VH: QVQLVQSGAEVKKPGASVKVSCKASGYTFTDYDMHWVRQAPGQGLEWMGIISTYYGDVSYAQKKQGRVTMTRDKSTSTVYMELSSLRSEDTAVYYCARSGTYNYGTRESHPLDYWGQGTLVTVSS
# VL: DIQMTQSPSSVSASVGDRVTITCRASDNVYSNLAWYQQKPGKAPKLLIYGAISLADGVPSRFSGSGSGTDFTLTISSLQPEDFATYYCQHFWGNPYTFGQGTKLEIK
# B2: anti-IL-18BP antibody variant BP-04.18 (antibody, V domains shown)
# VH: B1 VH with P111A
# VL: B1 VL
# B3: anti-IL-18BP antibody variant BP-04.13 (antibody, V domains shown)
# VH: B1 VH with K64F, N103Y, L112F
# VL: B1 VL
# B4: anti-IL-18BP antibody variant BP-04.12 (antibody, V domains shown)
# VH: B1 VH with I51Y, D57V, N103Y, P111A
# VL: B1 VL
# B5: anti-IL-18BP antibody variant BP-04.11 (antibody, V domains shown)
# VH: B1 VH with I51Y, D57V, K64F, P111A
# VL: B1 VL
# B6: anti-IL-18BP antibody variant BP-04.17 (antibody, V domains shown)
# VH: B1 VH with N103Y
# VL: B1 VL
# B7: anti-IL-18BP antibody variant BP-04.10 (antibody, V domains shown)
# VH: B1 VH with I51Y, D57V, K64F, N103Y
# VL: B1 VL
# B8: anti-IL-18BP antibody variant BP-04.31 (antibody, V domains shown)
# VH: B1 VH with D57V, K64F, N103Y, P111A
# VL: B1 VL
# B9: anti-IL-18BP antibody variant BP-04.14 (antibody, V domains shown)
# VH: B1 VH with K64F, P111A, L112F
# VL: B1 VL
# B10: anti-IL-18BP antibody variant BP-04.16 (antibody, V domains shown)
# VH: B1 VH with N103Y, P111A, L112F
# VL: B1 VL
# B11: anti-IL-18BP antibody variant BP-04.06 (antibody, V domains shown)
# VH: B1 VH with D57V, N103Y
# VL: B1 VL
# B12: anti-IL-18BP antibody variant BP-04.24 (antibody, V domains shown)
# VH: B1 VH with I51Y, K64F, N103Y
# VL: B1 VL
# B13: anti-IL-18BP antibody variant BP-04.01 (antibody, V domains shown)
# VH: QVQLVQSGAEVKKPGASVKVSCKASGYTFTDYDMWVRQAPGQGLEWMGIISTYYGDVSYAIKFQGRVTMTRDKSTSTVYMELSSLRSEDTAVYYCARSGTYYYGTRESALDYWGQGTLVTVSS
# VL: B1 VL
# B14: anti-IL-18BP antibody variant BP-04.30 (antibody, V domains shown)
# VH: B1 VH with N103Y, P111A
# VL: B1 VL
# Molecular target: T1, Avi/His-HuIL18BPa (recombinant human …)
# Experiment: cell-based or functional assay
row,Binder,"EC50 of IFNγ release, human PBMCs"
1,B1,18.6 nM
2,B2,11.3 nM
3,B3,16.6 nM
4,B4,31.9 nM
5,B5,3.94 nM
6,B6,8.89 nM
7,B7,10.5 nM
8,B8,6.3 nM
9,B9,543 nM
10,B10,3.34 nM
11,B11,1.32 nM
12,B12,4.84 nM

# Molecular target: T2, Avi/HisMsIL18BPd (recombinant mouse …)
# Experiment: cell-based or functional assay
row,Binder,"EC50 of IFNγ release, mouse splenocytes"
1,B1,31.8 nM
2,B2,28.4 nM
3,B3,41.4 nM
4,B4,0.865 nM
5,B5,3.61 nM
6,B6,14.6 nM
7,B7,501 nM
8,B13,1.67 nM
9,B14,7.43 nM
10,B9,21.2 nM
11,B10,220 nM
12,B11,67.6 nM

# Molecular target: T1, Avi/His-HuIL18BPa (recombinant human …)
# Experiment: SPR Biacore T200, IgG captured on Protein A/G
Binder,Kd,koff,kon
B12,16 nM,0.0047 s⁻¹,290000 M⁻¹ s⁻¹

# Molecular target: T3, His/Avi-CynoIL18BP (recombinant …)
# Experiment: SPR Biacore T200, IgG captured on Protein A/G
Binder,Kd,koff,kon
B12,29 nM,0.0059 s⁻¹,200000 M⁻¹ s⁻¹
